Residue numbers refer to the chain shown, from its start. Read-outs that look alike come from different tables or passages of the source. One block for each molecule: values may come before it.
Legend:
Assay in all cases: SPR
[1] = target: monomeric streptavidin variant mSA, wild type
[2] = target: monomeric streptavidin variant mSA, wild type; remark: listed apart in the source
[3] = target: monomeric streptavidin variant mSA with the S27A mutation

Molecule: Smt3 SUMO protein biotinylated at the N-terminus with biotin C2 maleimide (from UniProt Q12306 1-101) (natural protein)
Kd [1]: 9.6 nM

B1: 4NBX.B-biotin103 variant v119 (VHH)
VHH: QVQLQESGGGLAQAGGSLRLSCAASGRTFSHAPMAWFRQPPGKEREFVAAGSSTGRTTYYADSVKGRFTISRDNAKNTVYLQMNSLKPEDTAVYYCAAAPYGCSHYRDEYAYWGQGTQVTVSS
Kd [2]: 0.9 nM

Further lines, results first:

Kd [3]: 54 nM
Kd [2]: 0.2 nM
B2: 4NBX.B-biotin103 variant v186_Fr (VHH)
VHH: QVQLQESGGGLVQAGGSLRLSCAASGRTFSRSPMAWYRQPPGKEREFVAAGSSTGTTTYYADSVKGRFTISRDNAKNTVYLQMNSLKPEDTAVYYCAAAPLGCARKFAESAYWGQGTQVTVSS

Kd [2]: 0.12 nM
fold higher ka than v119 [2]: 4 fold
fold lower kd than v119 [2]: 2 fold
B3: 4NBX.B-biotin103 variant v149 (VHH)
VHH: B1 VHH with H31R, A32S, S104A, H105R
